Source: patent US20200085917A1

How the values were obtained:
Assay in all cases: GST pull-down, LC-MS/MS
[1] = target: Idh3g_IPI:IPI00109169.1 (mouse) (UniProt P70404)
[2] = target: Lyrm4_IPI:IPI00169804.1 (mouse) (UniProt Q8K215)
[3] = target: Oxa1l_IPI:IPI00308001.1 (mouse) (UniProt Q8BGA9)
[4] = target: Stoml2_IPI:IPI00115117.1 (mouse) (UniProt Q99JB2)
[5] = target: Hspa5_IPI:IPI00319992.1 (mouse) (UniProt P20029)
[6] = target: Hsd17b10_IPI:IPI00320847.1 (mouse) (UniProt O08756)
[7] = target: Lyrm7_IPI:IPI00117832.1 (mouse) (UniProt Q9DA03)
Sequence of Lyrm7_IPI:IPI00117832.1 (mouse) (Q9DA03 whole entry): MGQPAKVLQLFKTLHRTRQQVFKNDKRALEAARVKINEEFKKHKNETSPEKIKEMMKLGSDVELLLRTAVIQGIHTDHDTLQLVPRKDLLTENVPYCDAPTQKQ

[8] = target: Arf2_IPI:IPI00135730.1 (mouse) (UniProt Q8BSL7)
Sequence of Arf2_IPI:IPI00135730.1 (mouse) (Q8BSL7 2-181 limits assumed): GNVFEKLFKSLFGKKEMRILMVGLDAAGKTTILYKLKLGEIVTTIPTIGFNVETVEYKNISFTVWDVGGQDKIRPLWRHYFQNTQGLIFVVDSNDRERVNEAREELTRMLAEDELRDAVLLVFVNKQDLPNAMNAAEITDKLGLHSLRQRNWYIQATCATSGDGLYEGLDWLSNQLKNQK

[9] = target: Atp1a1_IPI:IPI00311682.5 (mouse) (UniProt Q8VDN2)
[10] = target: Slc6a11_IPI:IPI00136867.1 (mouse) (UniProt P31650)
[11] = target: Rab5b_IPI:IPI00116563.2 (mouse) (UniProt P61021)
[12] = target: Ywhaq_IPI:IPI00408378.4 (mouse) (UniProt P68254)
Sequence of Ywhaq_IPI:IPI00408378.4 (mouse) (P68254 whole entry): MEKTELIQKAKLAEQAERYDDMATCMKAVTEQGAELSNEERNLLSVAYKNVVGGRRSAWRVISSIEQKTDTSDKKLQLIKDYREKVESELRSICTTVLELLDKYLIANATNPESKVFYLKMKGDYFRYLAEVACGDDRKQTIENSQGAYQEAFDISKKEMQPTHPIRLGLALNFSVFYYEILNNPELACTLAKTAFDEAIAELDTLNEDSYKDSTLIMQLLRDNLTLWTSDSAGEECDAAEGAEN

[13] = target: Echs1_IPI:IPI00454049.4 (mouse) (UniProt Q8BH95)
Sequence of Echs1_IPI:IPI00454049.4 (mouse) (Q8BH95 28-290 limits assumed): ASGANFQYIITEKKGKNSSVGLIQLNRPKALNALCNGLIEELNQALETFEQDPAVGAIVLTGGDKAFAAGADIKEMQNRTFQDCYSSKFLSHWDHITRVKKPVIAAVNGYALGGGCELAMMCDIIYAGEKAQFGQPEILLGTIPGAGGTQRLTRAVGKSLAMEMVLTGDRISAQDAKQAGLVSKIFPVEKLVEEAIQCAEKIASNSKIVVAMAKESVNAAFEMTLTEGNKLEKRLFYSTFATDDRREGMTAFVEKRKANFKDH

[14] = target: Sccpdh_IPI:IPI00153266.1 (mouse) (UniProt Q8R127)
[15] = target: Asrgl1_IPI:IPI00223875.1 (mouse) (UniProt Q8C0M9)
[16] = target: Rdh13_IPI:IPI00229040.1 (mouse) (UniProt Q8CEE7)
Sequence of Rdh13_IPI:IPI00229040.1 (mouse) (Q8CEE7 2-334 limits assumed): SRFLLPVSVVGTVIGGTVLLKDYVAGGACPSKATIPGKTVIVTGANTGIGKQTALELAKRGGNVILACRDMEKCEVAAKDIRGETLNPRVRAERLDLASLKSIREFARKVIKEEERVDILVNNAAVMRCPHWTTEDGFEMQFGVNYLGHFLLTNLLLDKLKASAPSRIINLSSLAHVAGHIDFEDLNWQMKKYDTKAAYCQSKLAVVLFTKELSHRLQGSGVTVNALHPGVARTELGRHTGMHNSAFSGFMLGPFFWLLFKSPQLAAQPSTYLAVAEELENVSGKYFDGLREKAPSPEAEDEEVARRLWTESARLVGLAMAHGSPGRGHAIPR

[17] = target: Actg1_IPI:IPI00136929.1 (mouse) (UniProt P63260)
[18] = target: Tim17a (endogenous, mouse forebrain mitochondria) (mouse) (UniProt Q9Z0V8)
Sequence of Tim17a (endogenous, mouse forebrain mitochondria) (mouse) (Q9Z0V8 whole entry): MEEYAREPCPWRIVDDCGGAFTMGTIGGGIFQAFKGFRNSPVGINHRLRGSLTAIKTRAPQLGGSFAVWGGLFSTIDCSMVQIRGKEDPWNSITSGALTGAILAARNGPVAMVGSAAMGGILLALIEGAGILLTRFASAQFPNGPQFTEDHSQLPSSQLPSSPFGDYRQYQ

[19] = target: Gm561_IPI:IPI00344567.1 (mouse)
[20] = target: Gstk1_IPI:IPI00121051.3 (mouse) (UniProt Q9DCM2)
Sequence of Gstk1_IPI:IPI00121051.3 (mouse) (Q9DCM2 whole entry): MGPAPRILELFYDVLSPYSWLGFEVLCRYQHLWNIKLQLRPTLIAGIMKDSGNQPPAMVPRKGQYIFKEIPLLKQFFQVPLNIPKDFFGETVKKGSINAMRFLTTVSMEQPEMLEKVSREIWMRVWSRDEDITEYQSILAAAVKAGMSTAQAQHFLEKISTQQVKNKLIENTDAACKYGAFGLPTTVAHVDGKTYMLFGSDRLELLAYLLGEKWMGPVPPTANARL

[21] = target: Agk_IPI:IPI00113606.2 (mouse) (UniProt Q9ESW4)
Sequence of Agk_IPI:IPI00113606.2 (mouse) (Q9ESW4 whole entry): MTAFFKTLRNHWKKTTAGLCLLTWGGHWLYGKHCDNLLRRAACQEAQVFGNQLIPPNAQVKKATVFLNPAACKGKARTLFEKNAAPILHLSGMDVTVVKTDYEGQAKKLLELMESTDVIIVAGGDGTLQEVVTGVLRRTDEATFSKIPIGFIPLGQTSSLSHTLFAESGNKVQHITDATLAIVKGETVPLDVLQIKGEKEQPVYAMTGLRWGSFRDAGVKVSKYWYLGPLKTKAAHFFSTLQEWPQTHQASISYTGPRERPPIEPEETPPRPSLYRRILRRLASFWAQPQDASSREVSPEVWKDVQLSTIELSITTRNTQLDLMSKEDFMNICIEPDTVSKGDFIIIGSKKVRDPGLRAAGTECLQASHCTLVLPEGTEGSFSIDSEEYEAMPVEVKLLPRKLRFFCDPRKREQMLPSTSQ

[22] = target: Tim50 (endogenous, mouse) (mouse) (UniProt Q9D880)
[23] = target: LOC100044454_IPI:IPI00135284.1 (mouse)
[24] = target: Rhot1_IPI:IPI00123186.4 (mouse) (UniProt Q8BG51)
[25] = target: Uqcrq_IPI:IPI00224210.5 (mouse) (UniProt Q9CQ69)
Sequence of Uqcrq_IPI:IPI00224210.5 (mouse) (Q9CQ69 whole entry): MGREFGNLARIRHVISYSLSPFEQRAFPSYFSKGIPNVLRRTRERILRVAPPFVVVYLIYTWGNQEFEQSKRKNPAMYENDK

[26] = target: Uqcrb_IPI:IPI00132347.1 (mouse) (UniProt Q9D855)
Sequence of Uqcrb_IPI:IPI00132347.1 (mouse) (Q9D855 2-111 limits assumed): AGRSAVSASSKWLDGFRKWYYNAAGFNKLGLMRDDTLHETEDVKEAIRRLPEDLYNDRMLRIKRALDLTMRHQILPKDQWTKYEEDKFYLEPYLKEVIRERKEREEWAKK

[27] = target: 5730469M10Rik_IPI:IPI00187272.3 (mouse)
Sequence of 5730469M10Rik_IPI:IPI00187272.3 (mouse) (Q9CYH2 whole entry): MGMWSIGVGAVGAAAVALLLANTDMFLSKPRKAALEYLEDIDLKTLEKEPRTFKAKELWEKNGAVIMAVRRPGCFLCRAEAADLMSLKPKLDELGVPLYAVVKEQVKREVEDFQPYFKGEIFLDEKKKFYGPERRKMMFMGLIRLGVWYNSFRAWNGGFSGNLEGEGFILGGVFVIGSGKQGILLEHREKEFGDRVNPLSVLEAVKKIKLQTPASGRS

[28] = target: Pnkd_IPI:IPI00187405.4 (mouse) (UniProt Q69ZP3)
Sequence of Pnkd_IPI:IPI00187405.4 (mouse) (Q69ZP3 whole entry): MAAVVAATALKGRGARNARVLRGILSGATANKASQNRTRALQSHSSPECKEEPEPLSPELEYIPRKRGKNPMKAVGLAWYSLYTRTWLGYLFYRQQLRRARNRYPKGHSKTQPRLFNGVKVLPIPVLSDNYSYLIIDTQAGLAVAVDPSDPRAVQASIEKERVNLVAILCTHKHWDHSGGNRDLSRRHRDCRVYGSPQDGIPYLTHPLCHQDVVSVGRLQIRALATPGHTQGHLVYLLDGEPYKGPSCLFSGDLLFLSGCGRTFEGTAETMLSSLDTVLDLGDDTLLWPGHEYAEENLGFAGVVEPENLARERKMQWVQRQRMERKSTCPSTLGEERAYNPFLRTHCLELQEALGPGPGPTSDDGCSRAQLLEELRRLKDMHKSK

[29] = target: Brp44_IPI:IPI00131896.1 (mouse) (UniProt Q9D023)
Sequence of Brp44_IPI:IPI00131896.1 (mouse) (Q9D023 whole entry): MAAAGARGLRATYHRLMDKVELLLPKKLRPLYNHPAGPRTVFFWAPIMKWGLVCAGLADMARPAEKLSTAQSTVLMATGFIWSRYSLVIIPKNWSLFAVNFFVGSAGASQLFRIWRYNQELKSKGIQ

[30] = target: Mrps33_IPI:IPI00135214.1 (mouse) (UniProt Q9D2R8)
Sequence of Mrps33_IPI:IPI00135214.1 (mouse) (Q9D2R8 2-106 limits assumed): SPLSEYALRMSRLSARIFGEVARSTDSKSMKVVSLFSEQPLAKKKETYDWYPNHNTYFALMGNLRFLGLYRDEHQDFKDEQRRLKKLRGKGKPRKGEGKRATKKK

[31] = target: Iscu_IPI:IPI00110578.1 (mouse) (UniProt Q9D7P6)
Sequence of Iscu_IPI:IPI00110578.1 (mouse) (Q9D7P6 36-168 limits assumed): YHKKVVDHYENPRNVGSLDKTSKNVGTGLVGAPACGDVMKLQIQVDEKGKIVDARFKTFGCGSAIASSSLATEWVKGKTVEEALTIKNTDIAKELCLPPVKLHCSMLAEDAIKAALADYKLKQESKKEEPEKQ

[32] = target: Mtch1_IPI:IPI00137173.1 (mouse) (UniProt Q791T5)
Sequence of Mtch1_IPI:IPI00137173.1 (mouse) (Q791T5 whole entry): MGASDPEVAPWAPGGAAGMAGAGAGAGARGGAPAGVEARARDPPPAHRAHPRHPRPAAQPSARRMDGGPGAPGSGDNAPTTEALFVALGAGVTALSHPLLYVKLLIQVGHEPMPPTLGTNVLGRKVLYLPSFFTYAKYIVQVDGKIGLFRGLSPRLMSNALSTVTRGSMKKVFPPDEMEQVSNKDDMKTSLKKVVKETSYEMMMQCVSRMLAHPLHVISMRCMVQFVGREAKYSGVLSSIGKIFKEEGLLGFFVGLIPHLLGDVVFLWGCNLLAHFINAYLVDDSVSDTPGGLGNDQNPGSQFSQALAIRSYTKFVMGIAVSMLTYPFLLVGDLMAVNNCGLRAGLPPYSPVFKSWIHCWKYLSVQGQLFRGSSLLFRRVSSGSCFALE

[33] = target: Chchd4_IPI:IPI00124389.1 (mouse) (UniProt Q8VEA4)
Sequence of Chchd4_IPI:IPI00124389.1 (mouse) (Q8VEA4 whole entry): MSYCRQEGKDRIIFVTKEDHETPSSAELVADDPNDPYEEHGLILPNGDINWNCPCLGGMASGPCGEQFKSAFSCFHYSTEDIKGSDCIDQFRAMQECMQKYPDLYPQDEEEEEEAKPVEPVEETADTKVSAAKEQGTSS

Sequence of GST-Httex1-97Q (P08515 1-218, tags or fused parts left off): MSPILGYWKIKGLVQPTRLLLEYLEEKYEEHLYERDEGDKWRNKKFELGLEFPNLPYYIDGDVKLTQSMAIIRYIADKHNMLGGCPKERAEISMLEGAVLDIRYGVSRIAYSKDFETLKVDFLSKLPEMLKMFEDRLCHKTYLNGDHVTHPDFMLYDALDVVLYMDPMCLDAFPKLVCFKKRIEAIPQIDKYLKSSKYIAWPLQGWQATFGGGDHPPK
Sequence of Hsd17b10_IPI:IPI00320847.1 (mouse) (O08756 2-261 limits assumed): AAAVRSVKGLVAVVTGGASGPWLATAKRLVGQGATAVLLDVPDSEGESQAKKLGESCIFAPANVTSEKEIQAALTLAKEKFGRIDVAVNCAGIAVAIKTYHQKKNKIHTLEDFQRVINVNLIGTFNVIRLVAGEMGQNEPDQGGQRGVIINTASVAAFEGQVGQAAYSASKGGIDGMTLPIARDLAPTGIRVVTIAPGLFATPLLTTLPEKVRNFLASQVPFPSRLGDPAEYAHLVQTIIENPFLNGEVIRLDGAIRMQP
Sequence of Oxa1l_IPI:IPI00308001.1 (mouse) (Q8BGA9 whole entry): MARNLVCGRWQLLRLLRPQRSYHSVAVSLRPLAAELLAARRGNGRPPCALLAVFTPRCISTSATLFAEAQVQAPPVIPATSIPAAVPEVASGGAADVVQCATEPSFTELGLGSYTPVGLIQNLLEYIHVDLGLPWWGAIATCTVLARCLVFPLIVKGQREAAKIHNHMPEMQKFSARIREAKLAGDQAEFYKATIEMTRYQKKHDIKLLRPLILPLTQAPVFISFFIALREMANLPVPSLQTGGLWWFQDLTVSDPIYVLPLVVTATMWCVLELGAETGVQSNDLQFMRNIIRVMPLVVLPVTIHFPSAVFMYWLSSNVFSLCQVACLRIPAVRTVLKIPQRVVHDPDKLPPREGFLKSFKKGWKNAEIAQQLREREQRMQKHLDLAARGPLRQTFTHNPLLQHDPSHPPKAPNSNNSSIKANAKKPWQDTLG
Sequence of Lyrm4_IPI:IPI00169804.1 (mouse) (Q8K215 whole entry): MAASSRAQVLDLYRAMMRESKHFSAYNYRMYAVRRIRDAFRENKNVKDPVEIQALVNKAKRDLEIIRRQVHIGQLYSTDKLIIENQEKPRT

No. of total peptides [1]: 2 peptides
No. of unique peptides [1]: 2 peptides
No. of total peptides [2]: 1 peptides
No. of unique peptides [2]: 1 peptides
No. of total peptides [3]: 1 peptides
No. of unique peptides [3]: 1 peptides
No. of total peptides [4]: 1 peptides
No. of unique peptides [4]: 1 peptides
No. of total peptides [5]: 1 peptides
No. of unique peptides [5]: 1 peptides
No. of total peptides [6]: 1 peptides
No. of unique peptides [6]: 1 peptides
No. of total peptides [7]: 1 peptides
No. of unique peptides [7]: 1 peptides
No. of total peptides [8]: 3 peptides
No. of unique peptides [8]: 3 peptides
No. of total peptides [9]: 1 peptides
No. of unique peptides [9]: 1 peptides
No. of total peptides [10]: 1 peptides
No. of unique peptides [10]: 1 peptides
No. of total peptides [11]: 1 peptides
No. of unique peptides [11]: 1 peptides
No. of total peptides [12]: 1 peptides
No. of unique peptides [12]: 1 peptides
No. of total peptides [13]: 5 peptides
No. of unique peptides [13]: 5 peptides
No. of total peptides [14]: 1 peptides
No. of unique peptides [14]: 1 peptides
No. of total peptides [15]: 1 peptides
No. of unique peptides [15]: 1 peptides
No. of total peptides [16]: 1 peptides
No. of unique peptides [16]: 1 peptides
No. of total peptides [17]: 1 peptides
No. of unique peptides [17]: 1 peptides
No. of total peptides [18]: 1 peptides
No. of unique peptides [18]: 1 peptides
No. of total peptides [19]: 2 peptides
No. of unique peptides [19]: 2 peptides
No. of total peptides [20]: 1 peptides
No. of unique peptides [20]: 1 peptides
No. of total peptides [21]: 1 peptides
No. of unique peptides [21]: 1 peptides
No. of total peptides [22]: 3 peptides
No. of unique peptides [22]: 3 peptides
No. of total peptides [23]: 3 peptides
No. of unique peptides [23]: 3 peptides
No. of total peptides [24]: 1 peptides
No. of unique peptides [24]: 1 peptides
No. of total peptides [25]: 1 peptides
No. of unique peptides [25]: 1 peptides
No. of total peptides [26]: 1 peptides
No. of unique peptides [26]: 1 peptides
No. of total peptides [27]: 1 peptides
No. of unique peptides [27]: 1 peptides
No. of total peptides [28]: 1 peptides
No. of unique peptides [28]: 1 peptides
No. of total peptides [29]: 5 peptides
No. of unique peptides [29]: 5 peptides
No. of total peptides [30]: 1 peptides
No. of unique peptides [30]: 1 peptides
No. of total peptides [31]: 2 peptides
No. of unique peptides [31]: 2 peptides
No. of total peptides [32]: 3 peptides
No. of unique peptides [32]: 3 peptides
No. of total peptides [33]: 1 peptides
No. of unique peptides [33]: 1 peptides
Substance: GST-Httex1-97Q (from UniProt P08515 1-218; P42858 1-88)
